T1: Ctr9-ΔC913 (S. cerevisiae, UniProt P89105 1-913)
T1 construct: Ctr9, S. cerevisiae, variant lacking 164 amino acids at its C terminus (Ctr9-ΔC913); also called Ctr9 (in the Pol II-Paf1C-TFIIS EC); source: E. coli BL21 CodonPlus(DE3)RIL, coexpressed with the other subunits; in lysate and purified as part of Paf1C-Ctr9-ΔC913
T1 sequence (looked up): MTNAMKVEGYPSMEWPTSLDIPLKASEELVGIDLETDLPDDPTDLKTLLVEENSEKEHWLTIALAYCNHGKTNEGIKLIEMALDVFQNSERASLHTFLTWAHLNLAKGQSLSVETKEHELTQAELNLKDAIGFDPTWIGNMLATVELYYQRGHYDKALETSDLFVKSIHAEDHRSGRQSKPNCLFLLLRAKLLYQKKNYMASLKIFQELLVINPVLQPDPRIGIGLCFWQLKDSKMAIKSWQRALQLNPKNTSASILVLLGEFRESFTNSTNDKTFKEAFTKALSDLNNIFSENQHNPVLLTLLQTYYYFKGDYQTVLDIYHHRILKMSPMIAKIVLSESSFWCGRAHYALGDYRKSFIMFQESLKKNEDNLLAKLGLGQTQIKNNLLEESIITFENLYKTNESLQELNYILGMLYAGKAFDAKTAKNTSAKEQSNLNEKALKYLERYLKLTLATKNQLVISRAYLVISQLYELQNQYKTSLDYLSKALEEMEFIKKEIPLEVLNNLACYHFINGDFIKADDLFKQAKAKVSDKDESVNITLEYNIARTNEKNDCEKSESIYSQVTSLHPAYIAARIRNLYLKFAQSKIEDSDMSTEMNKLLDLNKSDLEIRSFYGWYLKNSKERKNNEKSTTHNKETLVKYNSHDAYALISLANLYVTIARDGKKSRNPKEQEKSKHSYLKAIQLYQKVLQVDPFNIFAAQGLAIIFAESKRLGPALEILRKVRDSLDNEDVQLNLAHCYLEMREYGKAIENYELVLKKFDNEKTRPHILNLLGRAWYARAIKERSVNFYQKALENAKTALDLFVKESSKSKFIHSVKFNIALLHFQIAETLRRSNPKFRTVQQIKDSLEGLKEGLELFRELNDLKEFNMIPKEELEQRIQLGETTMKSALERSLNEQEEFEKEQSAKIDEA

T2: Ctr9 (full length, C-terminal hexahistidine tag) (S. cerevisiae, UniProt P89105 1-1077)
T2 construct: Ctr9, S. cerevisiae, full length, amplified from genomic DNA, in pET24b; source: E. coli BL21 CodonPlus(DE3)RIL, coexpressed with the other subunits; in lysate and purified as part of Paf1C; not shown: His6, C-terminal, kept
T2 sequence (looked up): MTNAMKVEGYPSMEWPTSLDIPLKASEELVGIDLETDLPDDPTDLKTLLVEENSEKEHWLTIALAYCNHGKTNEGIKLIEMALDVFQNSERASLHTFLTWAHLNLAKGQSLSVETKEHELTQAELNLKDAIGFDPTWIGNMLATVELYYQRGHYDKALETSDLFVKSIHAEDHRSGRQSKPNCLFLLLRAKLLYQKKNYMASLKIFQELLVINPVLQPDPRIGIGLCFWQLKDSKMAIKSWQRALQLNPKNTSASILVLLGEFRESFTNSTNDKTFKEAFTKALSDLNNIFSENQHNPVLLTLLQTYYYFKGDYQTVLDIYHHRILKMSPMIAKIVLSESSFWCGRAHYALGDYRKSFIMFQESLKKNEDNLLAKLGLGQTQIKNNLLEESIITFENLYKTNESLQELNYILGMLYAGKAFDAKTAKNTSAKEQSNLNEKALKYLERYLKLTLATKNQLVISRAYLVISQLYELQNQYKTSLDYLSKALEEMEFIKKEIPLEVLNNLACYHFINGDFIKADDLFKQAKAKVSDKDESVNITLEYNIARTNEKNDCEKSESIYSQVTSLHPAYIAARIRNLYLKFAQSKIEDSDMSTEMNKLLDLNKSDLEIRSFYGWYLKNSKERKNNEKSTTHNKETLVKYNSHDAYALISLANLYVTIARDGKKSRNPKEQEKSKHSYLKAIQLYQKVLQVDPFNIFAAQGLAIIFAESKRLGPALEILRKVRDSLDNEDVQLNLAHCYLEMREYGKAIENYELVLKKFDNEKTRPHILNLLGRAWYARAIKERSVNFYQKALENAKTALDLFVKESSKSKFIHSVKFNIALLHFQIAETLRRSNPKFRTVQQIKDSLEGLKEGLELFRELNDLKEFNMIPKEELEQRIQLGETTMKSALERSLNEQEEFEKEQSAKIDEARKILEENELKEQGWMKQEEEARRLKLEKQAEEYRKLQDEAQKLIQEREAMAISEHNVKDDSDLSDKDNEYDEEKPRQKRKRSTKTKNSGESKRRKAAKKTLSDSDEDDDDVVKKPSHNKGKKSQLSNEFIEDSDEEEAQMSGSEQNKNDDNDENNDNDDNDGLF

B1: Cdc73 (natural protein, S. cerevisiae, UniProt Q06697 1-393, looked up)
chain: MANSLDRLREHLKNGDKLVLKNNEGQSTDDITKATMVETLSSDGSTQDSFPLNEETEIEIDGSLVQLRIIVHCWMNKDSSAADYLADCQNKQLTNVSFLQRTDLINWLSGNTESSQYLKAPGQKGETSDKVDIENKTLAGELSTVKSTTSASLENDSEVSDPVVVETMKHERILVDHNSALRGAKPINFGYLIKDAELKLVQSIKGSLRGSKLPPGHKGAHGRISKTNGSSGGPRKDPIILIPSAASSILTVANIKQFLLESKYVNPRNLPSVPNGLVNIEKNFERISRPIRFIIVDNTRMFTKPEYWDRVVAIFTTGHTWQFNNYQWNSPQELFQRCKGYYFHFAGDSVPQHVQQWNVEKVELDKNKRFKDVEVVRYFWHSLEKELISRGYR
notes: Cdc73, S. cerevisiae, full length, amplified from genomic DNA; source: E. coli BL21 CodonPlus(DE3)RIL, coexpressed with the other subunits; in lysate and purified as part of Paf1C

Legend:
Cdc73 = target: B1; assay: cross-linking; Pol II-Paf1C-TFIIS EC after SEC, 425 μg/ml, 0.5 mM BS3, 30 min, 30 °C; trypsin, Orbitrap Fusion LC-MS/MS, pLink, FDR 1%; details: both partners purified
Rpb2 (Pol II subunit) = target: T3, Rpb2 (Pol II subunit) (yeast, UniProt P08518 1-1224); assay: as above; details: both partners purified
T3 construct: Rpb2, subunit of yeast Pol II; source: part of purified Pol II

Ctr9-ΔC913 = target: T1, Ctr9-ΔC913; assay: as above; details: both partners purified
[1] = target: T2, Ctr9 (full length, C-terminal …); assay: co-purification after coexpression (Ni-NTA, cation exchange, SEC); subunits coexpressed in E. coli from three vectors, cells colysed; Ni-NTA (hexahistidine tag on Ctr9), HiTrap SP cation exchange, Superose 6 size exclusion; SDS-PAGE, subunits confirmed by mass spectrometry; details: partners not purified
Rtf1 = target: T4, Rtf1 (S. cerevisiae, UniProt P53064 1-558); assay: cross-linking; Pol II-Paf1C-TFIIS EC after SEC, 425 μg/ml, 0.5 mM BS3, 30 min, 30 °C; trypsin, Orbitrap Fusion LC-MS/MS, pLink, FDR 1%; details: both partners purified
T4 construct: Rtf1, S. cerevisiae, full length, amplified from genomic DNA; source: E. coli BL21 CodonPlus(DE3)RIL, coexpressed with Cdc73; in lysate and purified as part of Paf1C

Rpb1 (Pol II subunit) = target: T5, Rpb1 (Pol II subunit) (yeast, UniProt P04050 1-1733); assay: as above; details: both partners purified
T5 construct: Rpb1, largest subunit of yeast Pol II; source: part of purified Pol II
T5 sequence (P04050 whole entry): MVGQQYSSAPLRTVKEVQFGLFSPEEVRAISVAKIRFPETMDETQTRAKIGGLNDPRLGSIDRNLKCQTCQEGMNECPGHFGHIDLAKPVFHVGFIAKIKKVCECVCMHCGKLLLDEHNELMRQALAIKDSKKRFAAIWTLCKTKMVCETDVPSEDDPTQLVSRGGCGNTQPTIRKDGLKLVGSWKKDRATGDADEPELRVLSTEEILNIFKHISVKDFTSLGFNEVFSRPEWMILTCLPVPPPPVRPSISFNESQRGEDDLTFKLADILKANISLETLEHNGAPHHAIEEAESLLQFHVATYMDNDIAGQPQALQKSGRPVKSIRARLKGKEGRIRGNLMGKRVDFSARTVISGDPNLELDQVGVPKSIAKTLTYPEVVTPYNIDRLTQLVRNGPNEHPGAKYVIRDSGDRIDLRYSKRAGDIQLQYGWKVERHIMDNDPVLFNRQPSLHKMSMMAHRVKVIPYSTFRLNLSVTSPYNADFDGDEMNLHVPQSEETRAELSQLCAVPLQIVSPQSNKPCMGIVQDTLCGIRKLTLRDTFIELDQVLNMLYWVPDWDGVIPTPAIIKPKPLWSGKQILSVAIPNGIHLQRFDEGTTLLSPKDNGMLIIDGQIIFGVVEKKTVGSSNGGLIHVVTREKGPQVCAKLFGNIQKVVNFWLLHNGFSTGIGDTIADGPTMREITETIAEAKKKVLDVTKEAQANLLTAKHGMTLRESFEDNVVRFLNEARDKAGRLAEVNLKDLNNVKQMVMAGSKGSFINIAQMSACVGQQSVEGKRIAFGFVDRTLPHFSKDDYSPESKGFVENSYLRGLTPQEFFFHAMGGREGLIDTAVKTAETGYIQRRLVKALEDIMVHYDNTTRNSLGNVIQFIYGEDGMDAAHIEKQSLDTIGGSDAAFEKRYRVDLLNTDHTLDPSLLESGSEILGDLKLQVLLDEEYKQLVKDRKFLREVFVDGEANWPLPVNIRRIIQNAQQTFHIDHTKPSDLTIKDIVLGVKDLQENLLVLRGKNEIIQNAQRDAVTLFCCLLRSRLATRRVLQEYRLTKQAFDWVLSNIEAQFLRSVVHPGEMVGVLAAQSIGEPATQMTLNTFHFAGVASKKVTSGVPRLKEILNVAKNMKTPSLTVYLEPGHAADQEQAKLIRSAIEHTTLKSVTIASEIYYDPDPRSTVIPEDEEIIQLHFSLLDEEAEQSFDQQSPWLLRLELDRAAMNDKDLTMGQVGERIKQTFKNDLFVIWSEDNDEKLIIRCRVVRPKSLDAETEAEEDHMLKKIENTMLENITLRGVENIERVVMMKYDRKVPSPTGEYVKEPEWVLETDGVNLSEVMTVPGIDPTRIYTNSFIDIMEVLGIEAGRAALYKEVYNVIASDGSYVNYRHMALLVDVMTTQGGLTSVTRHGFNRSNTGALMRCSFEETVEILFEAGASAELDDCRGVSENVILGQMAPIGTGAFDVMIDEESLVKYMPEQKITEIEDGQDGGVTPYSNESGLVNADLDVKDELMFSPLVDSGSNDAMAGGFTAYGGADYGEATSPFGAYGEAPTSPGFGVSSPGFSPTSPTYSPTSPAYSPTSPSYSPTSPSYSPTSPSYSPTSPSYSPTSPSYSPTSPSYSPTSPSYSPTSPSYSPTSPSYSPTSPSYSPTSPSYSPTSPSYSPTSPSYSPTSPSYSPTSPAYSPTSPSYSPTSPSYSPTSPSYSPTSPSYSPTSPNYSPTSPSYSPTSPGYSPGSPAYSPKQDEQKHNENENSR

T3 sequence (P08518 whole entry): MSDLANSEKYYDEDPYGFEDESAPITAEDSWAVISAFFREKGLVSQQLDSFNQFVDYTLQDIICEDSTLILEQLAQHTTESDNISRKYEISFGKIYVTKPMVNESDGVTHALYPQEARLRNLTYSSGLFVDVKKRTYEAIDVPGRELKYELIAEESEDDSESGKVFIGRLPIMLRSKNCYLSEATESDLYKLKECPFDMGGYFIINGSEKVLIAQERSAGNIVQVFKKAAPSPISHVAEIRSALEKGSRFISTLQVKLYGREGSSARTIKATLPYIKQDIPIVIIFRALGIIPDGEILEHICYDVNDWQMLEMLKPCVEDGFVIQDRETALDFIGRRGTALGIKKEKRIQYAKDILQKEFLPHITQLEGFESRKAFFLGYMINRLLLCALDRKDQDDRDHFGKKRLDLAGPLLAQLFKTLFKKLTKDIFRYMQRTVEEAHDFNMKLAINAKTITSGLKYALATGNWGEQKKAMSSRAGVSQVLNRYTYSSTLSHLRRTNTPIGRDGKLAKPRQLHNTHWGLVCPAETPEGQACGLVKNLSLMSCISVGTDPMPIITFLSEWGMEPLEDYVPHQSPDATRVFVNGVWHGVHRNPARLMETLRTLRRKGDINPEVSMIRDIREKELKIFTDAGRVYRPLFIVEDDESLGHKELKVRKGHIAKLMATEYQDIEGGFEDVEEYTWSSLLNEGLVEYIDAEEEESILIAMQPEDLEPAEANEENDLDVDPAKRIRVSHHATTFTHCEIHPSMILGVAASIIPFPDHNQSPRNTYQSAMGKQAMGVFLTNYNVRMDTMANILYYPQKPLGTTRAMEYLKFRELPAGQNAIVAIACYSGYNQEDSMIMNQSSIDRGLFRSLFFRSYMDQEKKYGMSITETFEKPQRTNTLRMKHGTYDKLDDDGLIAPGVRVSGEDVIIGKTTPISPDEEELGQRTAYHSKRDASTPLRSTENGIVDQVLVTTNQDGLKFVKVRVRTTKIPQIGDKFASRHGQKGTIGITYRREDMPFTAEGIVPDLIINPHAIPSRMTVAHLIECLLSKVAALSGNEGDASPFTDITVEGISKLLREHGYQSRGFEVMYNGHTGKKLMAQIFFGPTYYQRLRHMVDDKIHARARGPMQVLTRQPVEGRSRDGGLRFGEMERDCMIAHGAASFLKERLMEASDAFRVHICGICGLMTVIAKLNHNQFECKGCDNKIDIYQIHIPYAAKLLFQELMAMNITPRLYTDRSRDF
T4 sequence (P53064 whole entry, the tested form may be a part): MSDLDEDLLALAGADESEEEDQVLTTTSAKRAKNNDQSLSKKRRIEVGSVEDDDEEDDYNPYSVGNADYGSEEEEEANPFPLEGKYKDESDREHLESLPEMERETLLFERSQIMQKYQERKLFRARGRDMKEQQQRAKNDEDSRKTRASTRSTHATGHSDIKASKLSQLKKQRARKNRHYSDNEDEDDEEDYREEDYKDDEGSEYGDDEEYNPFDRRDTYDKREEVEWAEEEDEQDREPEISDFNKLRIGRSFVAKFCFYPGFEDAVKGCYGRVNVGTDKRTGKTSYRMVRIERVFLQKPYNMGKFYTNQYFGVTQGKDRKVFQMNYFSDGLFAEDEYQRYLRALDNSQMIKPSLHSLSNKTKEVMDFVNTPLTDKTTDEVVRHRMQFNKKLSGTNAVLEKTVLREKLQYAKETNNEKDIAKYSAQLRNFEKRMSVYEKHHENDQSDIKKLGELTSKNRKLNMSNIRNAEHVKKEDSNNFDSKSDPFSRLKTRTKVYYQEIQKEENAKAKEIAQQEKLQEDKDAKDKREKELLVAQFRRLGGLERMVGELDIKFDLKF

| binding result (Cdc73) | binding result (Rpb2 (Pol II subunit)) | binding result (Ctr9-ΔC913) | binding result [1] | binding result (Rtf1) | binding result (Rpb1 (Pol II subunit)) | Binder |
| --- | --- | --- | --- | --- | --- | --- |
| binds | – | – | – | – | – | Rpb3 (Pol II subunit) (natural protein, yeast, Rpb3, subunit of yeast Pol II; source: part of purified Pol II) MSEEGPQVKIREASKDNVDFILSNVDLAMANSLRRVMIAEIPTLAIDSVEVETNTTVLADEFIAHRLGLIPLQSMDIEQLEYSRDCFCEDHCDKCSVVLTLQAFGESESTTNVYSKDLVIVSNLMGRNIGHPIIQDKEGNGVLICKLRKGQELKLTCVAKKGIAKEHAKWGPAAAIEFEYDPWNKLKHTDYWYEQDSAKEWPQSKNCEYEDPPNEGDPFDYKAQADTFYMNVESVGSIPVDQVVVRGIDTLQKKVASILLALTQMDQDKVNFASGDNNTASNMLGSNEDVMMTGAEQDPYSNASQMGNTGSGGYDNAW |
| – | binds | binds | binds | – | – | B1 |
| – | binds | binds | binds | binds | binds | Leo1 (natural protein, S. cerevisiae, UniProt P38439 1-464, looked up, Leo1, S. cerevisiae, open reading frame chemically synthesized (codon-optimised), in pCDFDuet-1; source: E. coli BL21 CodonPlus(DE3)RIL, coexpressed with the other subunits; in lysate and purified as part of Paf1C) MSSESPQDQPQKEQISNNVGVTTNSTSNEETSRSQDDNVKEVNGNDDTKEEEQEEDAELDDLFGDDNDDDDDDDVKKSETEKSDSDSDEDDEGENINHRSRHRESLGLDDDEAEEQAMYTRKFYGEDANNFSDQDETTHTFKEENVELVRHIIPSKANVNETASHNEIFYARIPNFLTIDPIPFDPPSFEAKVNERASNSASREDQLDDRLIDENTVRWRYSRDKDQHVFKESNTQIVQWSDGTYSLKVGEECTDILVNDTSNTFLTVSHDQQELIQCYEGGEIKKTLMFIPTSTNSKIHQKLSKAVIRRNQRQSKGPGTYIVSMDPEVEKKELERKQSQILRDRRRRQLKEKEKQESPDAAFETGFRKQNSPTTYGASRRNEYEEDDFLVDDDEEEEAAFDDEEDDNEEEEEEEDADEENASRLRNLKREGAAMYREEEEEEKDRSETKRRRVAVIEDDEDED |
| binds | – | – | – | – | – | Rpb11 (Pol II subunit) (natural protein, yeast, Rpb11, subunit of yeast Pol II; source: part of purified Pol II) MNAPDRFELFLLGEGESKLKIDPDTKAPNAVVITFEKEDHTLGNLIRAELLNDRKVLFAAYKVEHPFFARFKLRIQTTEGYDPKDALKNACNSIINKLGALKTNFETEWNLQTLAADDAF |
